Laboratory results published in patent US20210132079A1, “ANTIBODY” (UCB Biopharma SRL, priority 2015, published 2021).

Legend:
[1] = target: T1, Mouse TNFα (Mus musculus, UniProt P06804); assay: BIAcore surface plasmon resonance, captured IgG, mouse TNFα +/− test compound; assay type: binding
T1 construct: made in house
T1 sequence (P06804 80-235 limits assumed): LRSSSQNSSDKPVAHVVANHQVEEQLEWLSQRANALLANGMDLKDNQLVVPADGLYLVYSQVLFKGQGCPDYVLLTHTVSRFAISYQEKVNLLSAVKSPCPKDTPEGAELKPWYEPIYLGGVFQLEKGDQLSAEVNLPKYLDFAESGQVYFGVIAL
Method: (§1) Surface plasmon resonance was performed at 25° C. using a BIAcore T200 (GE Healthcare). Anti-Mouse Fc (Jackson 115-006-071) was immobilised on a […] Sensor Chip (GE Healthcare) via amine coupling chemistry to a capture level of 6000 response units. HBS-EP buffer (10 mM HEPES pH 7.4, 0.15 M NaCl, 3 mM EDTA, 0.05% (v/v) surfactant P20—GE Healthcare)+1% DMSO was used as the running buffer.
(§2) The surface was regenerated at a flow-rate of […] by a 60 s injection of 40 mM HCl×2 and a 30 s 5 mM NaOH. Double referenced background subtracted binding curves were analysed using the T200 Evaluation software (version 1.0) following standard procedures. Kinetic parameters were determined from the fitting algorithm.

[2] = target: human TNFα complexed with compound (1) (Homo sapiens, UniProt P01375); assay: Size exclusion chromatography (HPLC) of mouse Fab with TNFα-compound complex; assay type: binding; conditions: Fab at 0.5×-2× molar excess
[3] = test system: membrane TNFα; assay: FACS assay with engineered NS0 cell line overexpressing membrane TNFα; assay type: cell-based; conditions: Fab fragments; NS0 cells incubated with compound (1) or DMSO control
Method: An engineered NS0 cell line, which overexpresses membrane TNFα, due to knock-out of the TACE cleavage site was incubated with 0.001-10 μM compound (1) or 0.1% DMSO for 1 h at 37° C. Cells were washed, fixed and stained with antibody Fab fragments at 0.01 or 0.1 μg/ml for 1 hour on ice. (Secondary antibody was anti-mouse Fab-DyeLight488 from Jackson ImmunoResearch).
There is no staining with the DMSO controls.

[4] = target: T2, Human TNFα (Homo sapiens, UniProt P01375); assay: BIAcore surface plasmon resonance, captured IgG, human TNFα +/− test compound; assay type: binding; design: Soluble form of human TNFα; made in house
Method: as §1, §2
Target sequence in this assay (P01375 with tags, fused parts or gaps): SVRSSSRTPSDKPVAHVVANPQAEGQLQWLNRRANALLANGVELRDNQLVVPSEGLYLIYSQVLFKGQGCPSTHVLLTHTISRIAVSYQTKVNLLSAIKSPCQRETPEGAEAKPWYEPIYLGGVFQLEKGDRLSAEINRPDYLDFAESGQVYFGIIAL

[5] = target: T2, Human TNFα; assay: FACS assay with HEK Jumpin cells overexpressing TNF-RI, receptor-bound TNFα; assay type: cell-based; design: host or cells: HEK Jumpin cells (carry the TNF-RI; conditions: antibody at 1 and 10 μg/ml; TNFα pre-incubated with compound (1) or DMSO control
Method: HEK cells were trypsinised and incubated for 2 h in medium to allow recovery of digested TNFRI levels.
Target sequence in this assay (P01375 77-233 limits assumed): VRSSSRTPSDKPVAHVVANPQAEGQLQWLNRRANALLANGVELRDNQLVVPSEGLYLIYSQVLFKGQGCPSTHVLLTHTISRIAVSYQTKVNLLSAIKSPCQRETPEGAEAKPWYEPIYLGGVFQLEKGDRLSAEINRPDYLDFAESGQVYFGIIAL
Target sequence in this assay (P19438 22-455 partner limits assumed): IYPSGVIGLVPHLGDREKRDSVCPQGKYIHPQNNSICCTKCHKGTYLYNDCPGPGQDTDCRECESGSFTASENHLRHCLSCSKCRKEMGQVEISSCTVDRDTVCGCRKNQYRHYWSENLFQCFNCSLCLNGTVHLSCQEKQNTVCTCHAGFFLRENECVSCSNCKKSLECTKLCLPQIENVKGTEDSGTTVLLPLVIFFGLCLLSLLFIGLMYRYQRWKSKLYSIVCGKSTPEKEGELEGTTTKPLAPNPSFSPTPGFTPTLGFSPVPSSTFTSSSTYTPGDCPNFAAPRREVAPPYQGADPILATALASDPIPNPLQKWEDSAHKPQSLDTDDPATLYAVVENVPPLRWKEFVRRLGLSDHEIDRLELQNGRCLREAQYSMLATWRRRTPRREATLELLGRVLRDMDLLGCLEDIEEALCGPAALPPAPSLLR

membrane TNFα, sequence (P01375 89-233 limits assumed): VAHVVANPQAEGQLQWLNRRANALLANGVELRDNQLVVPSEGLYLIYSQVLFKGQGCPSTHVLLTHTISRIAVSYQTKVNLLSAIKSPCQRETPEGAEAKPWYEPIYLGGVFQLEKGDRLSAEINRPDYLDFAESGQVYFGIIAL
human TNFα complexed with compound (1), sequence (P01375 77-233 limits assumed, one chain of several): as the sequence (P01375 77-233 limits assumed) above

B1: CA185_01979: rat-derived conformation-selective antibody to compound-bound TNFα; LCVR SEQ ID NO: 22, HCVR SEQ ID NO: 23 (antibody, V domains shown)
VH: EVHLVESGPGLVKPSQSLSLTCSVTGYSITNSYWDWIRKFPGNKMEWMGYINYSGSTGYNPSLKSRISISRDTSNNQFFLQLNSITTEDTATYYCARGTYGYNAYHFDYWGRGVMVTVSS
VL: DIQMTQSPASLSASLEEIVTITCQASQDIGNWLSWYQQKPGKSPHLLIYGTTSLADGVPSRFSGSRSGTQYSLKISGLQVADIGIYVCLQAYSTPFTFGSGTKLEIK
modifications: HCVR of 1979; DIQMTQSPASLSASLEEIVTITCQASQDIGNWLSWYQQKPGKSPHLLIYGTTSLADGVPSRFSGS RSGTQYSLKISGLQVADIGIYVCLQAYSTPFTFGSGTKLEIK
Kd ([1]; Mouse TNFα + compound (1)): 0.38 nM
ka ([1]; Mouse TNFα + compound (1)): 160000 M⁻¹ s⁻¹
kd ([1]; Mouse TNFα + compound (1)): 6.3e-05 s⁻¹
ka ([1]; Mouse TNFα + compound (2)): 190000 M⁻¹ s⁻¹
kd ([1]; Mouse TNFα + compound (2)): 3.5e-05 s⁻¹
Kd ([1]; Mouse TNFα apo): 27 nM
ka ([1]; Mouse TNFα apo): 72000 M⁻¹ s⁻¹
kd ([1]; Mouse TNFα apo): 0.002 s⁻¹
stoichiometry of Fab binding to TNFα trimer [2]: 1 Fab: 1 TNFα trimer
FACS staining of membrane-bound TNFα [3]: only recognise TNF which has been pre-incubated with compound (1)
ka ([4]; Human TNFα + compound (1)): 470000 M⁻¹ s⁻¹
kd ([4]; Human TNFα + compound (1)): 1.6e-05 s⁻¹
ka ([4]; Human TNFα + compound (2)): 570000 M⁻¹ s⁻¹
kd ([4]; Human TNFα + compound (2)): 3.3e-05 s⁻¹
ka ([4]; Human TNFα apo): 110000 M⁻¹ s⁻¹
kd ([4]; Human TNFα apo): 0.00071 s⁻¹
FACS staining of receptor-bound TNFα [5]: only recognise TNFα which has been pre-incubated with compound (1)
